# Target: O型FMDV流行毒株 (Foot-and-mouth disease virus serotype O)
# Experiment: cell-based or functional assay
binder,measurement,value
O型口蹄疫病毒中和抗体Ab1 (VHH) VHH: QVQLQESGGGLVQPGGSLRLSCAASGTPFSGGSINEISINHLGWYRQAPGKERELVAAITRGGSTYYADSVKGRFAISRDDAKKMVYLQMNSLKPEDTAVYYCNGLRASTAQWEESETTWGQGTQVTVSS,Neu 50 (病毒中和试验),0.8 µmol/L
